Data published in the supplement of paper PMC7877785.
± gives the uncertainty stated by the source.

Assay: self-splicing fitness, log relative to wild type (ln ratio); higher = more splicing; Tetrahymena group I intron in knt gene, E. coli kanamycin selection, DiMSum; sequences stand for … in CUCUCU…GGAGGGAAAAGUUAUCAGGCAUGCACCUGGUAGCUAGUCUUUAAACCAAUAGAUUGCAUCGGUUUAAAAGGCAAGACCGUCAAAUUGCGGGAAAGGGGUCAACAGCCGUUCAGUACCAAGUCUCAGGGGAAACUUUGAGAUGGCCUUGCAAAGGGUAUGGUAAUAAGCUGACGGACAUGGUCCUAACCACGCAGCCAAGUCCUAAGUCAACAGAUCUUCUGUUGAUAUGGAUGCAGUUCACAGACUAAAUGUCGGUCGGGGAAGAUGUAUUCUUCUCAUAAGAUAUAGUCGGACCUCUCCUUAAUGGGAGCUAGCGGAUGAAGUGAUGCAACACUGGAGCCGCUGGGAACUAAUUUGUAUGCGAAAGUAUAUUGAUUAGUUUUGGAGUACUCGUGGUCG
Procedure, shortened: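 Library with all eight P1ex-region intron nucleotides randomised, intron inside the knt kanamycin-resistance gene on pET-22b(+), in E. coli BL21(DE3). Cells grew overnight at 37°C or 30°C on LB agar with or without 25 μg/mL kanamycin (plus 100 μg/mL carbenicillin, 50 μM IPTG, 0.2% rhamnose), in six replicate transformations. Pooled colonies were amplicon-sequenced on Illumina HiSeq 2500. DiMSum fitness is the error-weighted combination of wild-type-normalised replicate fold changes, kanamycin versus none.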

Sequence | self-splicing fitness (ln) (30 °C) | self-splicing fitness (ln) (37 °C)
GCAUAGCAAUAUUACGCCCA | -2.41 ± 0.19 | -0.965 ± 0.16
GCAUAGCAAUAUUACGCGAG | -2.42 ± 0.23 | -1.72 ± 0.17
GCAUAGCAAUAUUACGCGUA | -1.43 ± 0.13 | -0.403 ± 0.12
GCAUAGCAAUAUUACGCUAC | -3.61 ± 0.34 | -2.11 ± 0.27
GCAUAGCAAUAUUACGGAAG | -3.8 ± 0.34 | -2.09 ± 0.37
GCAUAGCAAUAUUACGGAAU | -2.21 ± 0.16 | -1.84 ± 0.23
GCAUAGCAAUAUUACGGCGG | -2.63 ± 0.19 | -2.26 ± 0.37
GCAUAGCAAUAUUACGGGGA | -3.23 ± 0.28 | -2.37 ± 0.19
GCAUAGCAAUAUUACGGUAC | -2.07 ± 0.097 | -1.47 ± 0.091
GCAUAGCAAUAUUACGGUAU | -2.86 ± 0.16 | -1.75 ± 0.12
GCAUAGCAAUAUUACGUAAG | -1.63 ± 0.083 | -0.386 ± 0.12
GCAUAGCAAUAUUACGUCGA | -1.63 ± 0.15 | -0.979 ± 0.15
GCAUAGCAAUAUUACGUCUG | -1.87 ± 0.068 | -0.701 ± 0.072
GCAUAGCAAUAUUACGUGGU | -3.13 ± 0.14 | -2.8 ± 0.15
GCAUAGCAAUAUUACGUGUU | -3.84 ± 0.14 | -2.36 ± 0.088
GCAUAGCAAUAUUACGUUCC |  | -2.25 ± 0.31
GCCAAGCAAUAUUACGAACC | -2.03 ± 0.12 | -0.423 ± 0.14
GCCAAGCAAUAUUACGAAGG | -2.52 ± 0.13 | -2.15 ± 0.22
GCCAAGCAAUAUUACGACCA | -1.48 ± 0.17 | -1.36 ± 0.19
GCCAAGCAAUAUUACGAGCU | -1.35 ± 0.12 | -1.46 ± 0.15
GCCAAGCAAUAUUACGAGUU | -1.7 ± 0.066 | -0.45 ± 0.08
GCCAAGCAAUAUUACGAUAA | -3.09 ± 0.17 | -1.6 ± 0.2
GCCAAGCAAUAUUACGAUCG | -2.24 ± 0.22 | -2.42 ± 0.22
GCCAAGCAAUAUUACGCAGG | -2.98 ± 0.17 | -2.05 ± 0.24

Sequence | self-splicing fitness (ln) (30 °C) | self-splicing fitness (ln) (37 °C)
GCCAAGCAAUAUUACGCGAC | -2.35 ± 0.11 | -0.858 ± 0.1
GCCAAGCAAUAUUACGCUCG | -3.5 ± 0.2 | -1.84 ± 0.15
GCCAAGCAAUAUUACGGAGA | -1.45 ± 0.086 | -0.924 ± 0.089
GCCAAGCAAUAUUACGGCCG | -1.48 ± 0.23 | -2.11 ± 0.46
GCCAAGCAAUAUUACGGCGA | -1.18 ± 0.093 | -0.756 ± 0.095
GCCAAGCAAUAUUACGGCGG | -3.3 ± 0.14 | -1.84 ± 0.16
GCCAAGCAAUAUUACGGCGU | -0.74 ± 0.067 | -0.453 ± 0.1
GCCAAGCAAUAUUACGGCUA | -1.66 ± 0.17 | -1.39 ± 0.15
GCCAAGCAAUAUUACGGGGA | -0.604 ± 0.065 | 0.0408 ± 0.085
GCCAAGCAAUAUUACGGGUG | -0.544 ± 0.049 | -0.591 ± 0.057
GCCAAGCAAUAUUACGGUUC | -2.61 ± 0.16 | -0.763 ± 0.12
GCCAAGCAAUAUUACGUCCA | -2.32 ± 0.18 | 0.44 ± 0.2
GCCAAGCAAUAUUACGUGAU | -0.879 ± 0.053 | 0.385 ± 0.07
GCCAAGCAAUAUUACGUGUA | -1.41 ± 0.068 | -0.64 ± 0.062
GCCAAGCAAUAUUACGUUAC | -2.55 ± 0.12 | -2.39 ± 0.18
GCCAAGCAAUAUUACGUUCA | -2.12 ± 0.11 | -0.947 ± 0.12
GCCCAGCAAUAUUACGAAUG | -4.15 ± 0.24 | -2.26 ± 0.23
GCCCAGCAAUAUUACGAGCU | -3.47 ± 0.19 | -1.89 ± 0.15
GCCCAGCAAUAUUACGAUCC | -0.561 ± 0.13 | -0.336 ± 0.19
GCCCAGCAAUAUUACGAUUC | -1.56 ± 0.074 | -0.274 ± 0.09
GCCCAGCAAUAUUACGCACA | -0.537 ± 0.092 | -0.518 ± 0.094
GCCCAGCAAUAUUACGCAUA | -1.61 ± 0.093 | -0.164 ± 0.088
GCCCAGCAAUAUUACGCGAU | -2.76 ± 0.13 | 0.119 ± 0.1
GCCCAGCAAUAUUACGGACG | -0.702 ± 0.07 | -0.133 ± 0.097

Sequence | self-splicing fitness (ln) (30 °C) | self-splicing fitness (ln) (37 °C)
GCCCAGCAAUAUUACGGCUU | -1.29 ± 0.071 | -0.757 ± 0.093
GCCCAGCAAUAUUACGGGGC | -2.87 ± 0.15 | -2.73 ± 0.25
GCCCAGCAAUAUUACGGUAU | -0.47 ± 0.055 | -0.0153 ± 0.068
GCCCAGCAAUAUUACGGUGA | -0.302 ± 0.045 | 0.206 ± 0.056
GCCCAGCAAUAUUACGGUUC | -0.85 ± 0.043 | -0.0899 ± 0.059
GCCCAGCAAUAUUACGUAAA | -0.596 ± 0.06 | -0.718 ± 0.097
GCCCAGCAAUAUUACGUAUA | -2.1 ± 0.11 | -1.33 ± 0.11
GCCCAGCAAUAUUACGUCCA | -0.999 ± 0.09 | -1.18 ± 0.12
GCCCAGCAAUAUUACGUCUA | -1.37 ± 0.084 | -1.15 ± 0.093
GCCCAGCAAUAUUACGUCUC | -1.3 ± 0.085 | -0.175 ± 0.086
GCCCAGCAAUAUUACGUGAA | -0.204 ± 0.053 | 0.177 ± 0.077
GCCCAGCAAUAUUACGUGAU | -0.455 ± 0.046 | -0.00599 ± 0.065
GCCCAGCAAUAUUACGUGUU | -0.583 ± 0.042 | -0.217 ± 0.054
GCCGAGCAAUAUUACGAAAU | -3.1 ± 0.39 | -1.62 ± 0.41
GCCGAGCAAUAUUACGACCA | -2.62 ± 0.3 | -2.31 ± 0.31
GCCGAGCAAUAUUACGACCC | -2.25 ± 0.34 | -0.208 ± 0.39
GCCGAGCAAUAUUACGAGCA | -1.93 ± 0.11 | -0.944 ± 0.11
GCCGAGCAAUAUUACGCAGC | -3.12 ± 0.29 | -2.22 ± 0.27
GCCGAGCAAUAUUACGCAGU | -2.75 ± 0.33 | -2.25 ± 0.23
GCCGAGCAAUAUUACGCCAA | -1.62 ± 0.43 | 
GCCGAGCAAUAUUACGCCCG | -2.68 ± 0.26 | 
GCCGAGCAAUAUUACGCCCU | -2.8 ± 0.25 | -0.0518 ± 0.2
GCCGAGCAAUAUUACGCGAC | -2.44 ± 0.21 | -2.26 ± 0.35
GCCGAGCAAUAUUACGGGUA | -1.36 ± 0.068 | -0.505 ± 0.068

Sequence | self-splicing fitness (ln) (30 °C) | self-splicing fitness (ln) (37 °C)
GCCGAGCAAUAUUACGUAGC | -2.02 ± 0.12 | -1.84 ± 0.14
GCCGAGCAAUAUUACGUAUG | -3.36 ± 0.25 | -3.11 ± 0.38
GCCGAGCAAUAUUACGUGCU | -3.92 ± 0.21 | -2.08 ± 0.15
GCCGAGCAAUAUUACGUGGG | -4.56 ± 0.42 | -2.85 ± 0.27
GCCGAGCAAUAUUACGUUCC | -1.3 ± 0.2 | -0.589 ± 0.25
GCCGAGCAAUAUUACGUUCU | -1.23 ± 0.1 | -0.97 ± 0.1
GCCGAGCAAUAUUACGUUGC | -3.96 ± 0.25 | -2.73 ± 0.22
GCCGAGCAAUAUUACGUUUA | -2.56 ± 0.17 | 0.181 ± 0.12
GCCUAGCAAUAUUACGACAG | -3.52 ± 0.29 | -2.82 ± 0.28
GCCUAGCAAUAUUACGAGUG | -2.5 ± 0.11 | -0.934 ± 0.099
GCCUAGCAAUAUUACGAUCA | -2.27 ± 0.27 | -2.22 ± 0.18
GCCUAGCAAUAUUACGAUCG | -2.05 ± 0.15 | -1.36 ± 0.18
GCCUAGCAAUAUUACGAUUA | -3.39 ± 0.29 | -1.63 ± 0.18
GCCUAGCAAUAUUACGCACU | -0.602 ± 0.083 | 0.143 ± 0.078
GCCUAGCAAUAUUACGCAGC | -4.41 ± 0.36 | -1.52 ± 0.19
GCCUAGCAAUAUUACGCCCA | -2.69 ± 0.25 | -0.792 ± 0.2
GCCUAGCAAUAUUACGCGAA | -2.72 ± 0.18 | -1.64 ± 0.14
GCCUAGCAAUAUUACGCGUG | -4.17 ± 0.42 | -0.758 ± 0.17
GCCUAGCAAUAUUACGCGUU | -0.166 ± 0.068 | 0.243 ± 0.075
GCCUAGCAAUAUUACGCUAG |  | -2.47 ± 0.3
GCCUAGCAAUAUUACGCUCC | -1.64 ± 0.28 | 0.265 ± 0.2
GCCUAGCAAUAUUACGGAAU | -1.23 ± 0.074 | -0.307 ± 0.093
GCCUAGCAAUAUUACGGCCA | -1.81 ± 0.33 | -1.52 ± 0.35
GCCUAGCAAUAUUACGUACG | -2.67 ± 0.23 | -1.52 ± 0.24
